Laboratory results: article PMC8913300, “Two distinct classes of cochaperones compete for the EEVD motif in heat shock protein 70 to tune its chaperone activities” (The Journal of Biological Chemistry, 2022)

Key:
[1] = biological target: Hsp70 EEVD motif (Homo sapiens) (UniProt P0DMV8); settings: cited from earlier work
[2] = biological target: Hsp72 tracer FITC-Ahx-…; test: fluorescence polarisation; saturation binding; 20 nM fluorescent Hsp72 tracer, J-domain protein titrated in 2x dilutions (110-0.013 μM told for DnaJB4); 50 mM Tris, 15 mM NaCl, 1 mM DTT, 0.01% Triton X-100, pH 8.0; 30 min at room temperature

DnaJB1 CTD I, sequence (P25685 161-243): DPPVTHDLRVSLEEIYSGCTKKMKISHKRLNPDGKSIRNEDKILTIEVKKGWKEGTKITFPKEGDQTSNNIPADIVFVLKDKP
Hsp70 EEVD motif (Homo sapiens), sequence (P0DMV8 whole entry, looked up): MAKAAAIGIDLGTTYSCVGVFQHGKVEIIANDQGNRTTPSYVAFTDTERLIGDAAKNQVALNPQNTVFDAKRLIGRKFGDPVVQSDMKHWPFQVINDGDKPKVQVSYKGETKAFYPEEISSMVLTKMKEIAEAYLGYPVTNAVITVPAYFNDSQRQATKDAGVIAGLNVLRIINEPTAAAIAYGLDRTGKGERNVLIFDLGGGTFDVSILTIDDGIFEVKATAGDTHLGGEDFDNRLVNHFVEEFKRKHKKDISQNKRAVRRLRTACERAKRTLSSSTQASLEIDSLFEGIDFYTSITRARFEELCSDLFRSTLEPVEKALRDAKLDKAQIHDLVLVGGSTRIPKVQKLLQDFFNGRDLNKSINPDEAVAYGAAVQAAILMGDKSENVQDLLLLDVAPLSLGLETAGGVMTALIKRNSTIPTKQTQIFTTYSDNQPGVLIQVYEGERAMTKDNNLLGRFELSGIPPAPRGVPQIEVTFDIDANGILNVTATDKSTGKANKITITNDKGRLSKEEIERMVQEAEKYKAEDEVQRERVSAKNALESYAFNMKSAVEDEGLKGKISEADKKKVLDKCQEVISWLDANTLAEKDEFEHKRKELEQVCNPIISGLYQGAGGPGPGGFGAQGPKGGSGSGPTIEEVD

Kd [2] [µM] | Substance | Kd [1] [µM]
– | DnaJB1 CTD I (from UniProt P25685) | 15
2.44 | DnaJB4 QPD mutant (from UniProt Q9UDY4 1-337) (natural protein) | –
